Measurements published in publication PMC2723105, “DNA binding by Corynebacterium glutamicum TetR-type transcription regulator AmtR”.

How the values were obtained:
[1] = biological target: T1, AmtR-MBP wild type (Corynebacterium glutamicum ATCC13032, UniProt H7C699 2-222); test: EMSA; settings: EMSA: DIG gel shift kit (Roche) conditions, 0.04 ng DNA, native 6% PAGE in 0.5x TBE; SPR: HBS-EP running buffer, 25 °C, BIAcoreX, nonspecific 30-mer DNA in the …
T1 sequence: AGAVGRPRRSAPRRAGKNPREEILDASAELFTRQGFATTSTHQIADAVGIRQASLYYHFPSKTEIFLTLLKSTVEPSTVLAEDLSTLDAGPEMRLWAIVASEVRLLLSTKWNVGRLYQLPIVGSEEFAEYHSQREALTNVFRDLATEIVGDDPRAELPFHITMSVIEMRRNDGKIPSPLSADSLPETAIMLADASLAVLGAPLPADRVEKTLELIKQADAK

[2] = biological target: T2, AmtR-MBP wild type (Corynebacterium glutamicum ATCC13032) (UniProt H7C699); test: EMSA; settings: EMSA: DIG gel shift kit (Roche) conditions, 0.04 ng DNA, native 6% PAGE in 0.5x TBE; SPR: HBS-EP running buffer, 25 °C, BIAcoreX, nonspecific 30-mer DNA in the …
T2 sequence: T1 sequence

[3] = biological target: T1, AmtR-MBP wild type; test: SPR; EMSA: DIG gel shift kit (Roche) conditions, 0.04 ng DNA, native 6% PAGE in 0.5x TBE; SPR: HBS-EP running buffer, 25 °C, BIAcoreX, nonspecific 30-mer DNA in the; settings: protein: recombinant; tags: N-terminal MBP (pMalc2); chain copies: 2; label: 3' biotin on forward strand; blunt

With amtB promoter PCR fragment the Kd [1] was 2400 nM.

For “GCCCGTGGTGTGCTCACCAATGATGAAGTCGACGCGCTGACACAGGTGTGGACTTCCGCACTGAGCTTGCAGTCGAAACGTTGGATGGATCACATCCATGATCAAGAAACCACCGCTTGGGAGCTTCCCGCGCTGCAACGTGCCACTTTTGGCGCATCGGCTCGGTTGCTTTCTGAGGTGTTGCGGTCCGTTGAAGCCCGTGAAATCGATACCATAATAGGAACTCTG (double strand) [amtR upstream DNA, additional spacing nucleotide]”, the binding [2] was “binds”.

Work on “GCTGGGCTAGAAACCCGATAAGCGAGAACCACCTGTCGGATGTTGTCTGGCAGGTGGTTTTCTTTTGCCTGGGTACCACCAAAAAGCAGCTGTGATGCACTTAACAATTCATTAAATTACCTGTTAAACTATAGAAAATATCCAAAACCCTCCAAAACCTATTCTATAGATCTATTGAAATTAGTTTCTGTAGGTCTATAGTTAGAGCTGGTTCAAGGGGTGTCAATCCCAAAAGGCACTCCTTGAACTCATGAAAAAGCTTGACAAAACTTCAACGTCAAAGGAGGTCATCCACGC (double strand) [amtB promoter PCR fragment]” yielded a Kd [2] of 2400 nM.

B1: amtBp SPR 30-mer (dsDNA)
DNA 1: TAAATTACCTGTTAAACTATAGAAAATATC
DNA 2: GATATTTTCTATAGTTTAACAGGTAATTTA
B1: binds [3].
